Measurements reported in patent US20200179497A1 (HANSA BIOPHARMA, published 2020).

What was measured:
[1] = biological target: rabbit anti-BSA (ACRIS, #R1048P); assay: cell-based or functional assay
denosumab (XGEVA) = assay: cell-based or functional assay

Binder | pCART124 ratio (fold change in potency relative to IdeS), potency ELISA [1] [fold] | cleavage efficacy on SDS-PAGE, fold vs pCART144 (denosumab (XGEVA)) [fold] | pCART124 ratio, potency ELISA [1] [fold]
pCART197 (enzyme) MDDYQRNATEAYAKEVPHQITSVWTKGVTPLTPEQFRYNNEDVIHAPYLANQGWYDITKAFDGKDNLLCGAATAGNMLHWWFDQNKTEIEAYLSKHPEKQKIIFRNQELFDLKEAIRTKDSQTNSQLFEYFRDKAFPYLSARQLGVMPDLVLDMFINGYYLNVFKTQSTDVKRPYQDKDKRGGIFDAVFTRGNQTTLLTARHDLKNKGLNDISTIIKEELTKGRALALSHTYANVSISHVINLWGADFNAEGNLEAIYVTDSDANASIGMKKYFVGINKHGHVAISAKKIEGENIGAQVLGLFTLSSGKDIWQKLNGGGHHHHHH | 8 | – | –
pCART201 (enzyme) MSVWTKGVTPLTPEQFRYNNEDVIHAPYLAHQGWYDITKAFDGKDNLLCGAATAGNMLHWWFDQNKTEIEAYLSKHPEKQKIIFNNQELFDLKAAIDTKDSQTNSQLFNYFRDKAFPNLSARQLGVMPDLVLDMFINGYYLNVFKTQSTDVNRPYQDKDKRGGIFDAVFTRGDQTTLLTARHDLKNKGLNDISTIIKQELTEGRALALSHTYANVSISHVINLWGADFNAEGNLEAIYVTDSDANASIGMKKYFVGINAHGHVAISAKKIEGENIGAQVLGLFTLSSGKDIWQKLSGGGHHHHHH | 8 | – | –
pCART203 (enzyme) MDDYQRNATEAYAKEVPHQITSVWTKGVTPPEQFTQGEDVIHAPYLAHQGWYDITKAFDGKDNLLCGAATAGNMLHWWFDQNKTEIEAYLSKHPEKQKIIFNNQELFDLKAAIDTKDSQTNSQLFNYFRDKAFPNLSARQLGVMPDLVLDMFINGYYLNVFKTQSTDVNRPYQDKDKRGGIFDAVFTRGDQTTLLTARHDLKNKGLNDISTIIKQELTEGRALALSHTYANVSISHVINLWGADFNAEGNLEAIYVTDSDANASIGMKKYFVGINAHGHVAISAKKIEGENIGAQVLGLFTLSSGKDIWQKLSGGGHHHHHH | – | ~3 | ~3.5
